According to the Human Domainome abundance scans (Beltran et al. 2025):
± gives the uncertainty stated by the source.

B1: Myocardin-related transcription factor A, residues 341 to 383; numbered along this chain, Q969V6 (parent)
chain: GALPANLDDMKVAELKQELKLRSLPVSGTKTELIERLRAYQDQ

Variants of: B1
Assay: abundance fitness (aPCA) (normalised: wild type 0, dead -1); higher = more abundant; growth selection in yeast, the domain comes from the species named
Settings: Homo sapiens
Variant GALPANLDDMKVAELKQELKLRSLPVSGTKTELIENLRAYQDQ [R36N] has an abundance fitness of -0.356 ± 0.12. Variant GALPANLDDMKVAELKQELKLRSLPVSGTKTELIEPLRAYQDQ [R36P] has an abundance fitness of -0.066 ± 0.1. In the case of GALPANLDDMKVAELKQELKLRSLPVSGTKTELIEQLRAYQDQ [R36Q], the abundance fitness is reported as -0.201 ± 0.072. Work on GALPANLDDMKVAELKQELKLRSLPVSGTKTELIESLRAYQDQ [R36S] yielded an abundance fitness of -0.291 ± 0.075. For GALPANLDDMKVAELKQELKLRSLPVSGTKTELIETLRAYQDQ [R36T], the abundance fitness was -0.113 ± 0.082. Variant GALPANLDDMKVAELKQELKLRSLPVSGTKTELIEVLRAYQDQ [R36V] has an abundance fitness of -0.339 ± 0.061. For GALPANLDDMKVAELKQELKLRSLPVSGTKTELIEWLRAYQDQ [R36W], the abundance fitness was -0.73 ± 0.08. With GALPANLDDMKVAELKQELKLRSLPVSGTKTELIERARAYQDQ [L37A] the abundance fitness was -0.435 ± 0.076. For GALPANLDDMKVAELKQELKLRSLPVSGTKTELIERCRAYQDQ [L37C], the abundance fitness was -0.404 ± 0.13. Work on GALPANLDDMKVAELKQELKLRSLPVSGTKTELIERDRAYQDQ [L37D] yielded an abundance fitness of -0.298 ± 0.087. For GALPANLDDMKVAELKQELKLRSLPVSGTKTELIERERAYQDQ [L37E], the abundance fitness was -0.504 ± 0.086. With GALPANLDDMKVAELKQELKLRSLPVSGTKTELIERGRAYQDQ [L37G] the abundance fitness was -0.303 ± 0.067. GALPANLDDMKVAELKQELKLRSLPVSGTKTELIERKRAYQDQ [L37K] showed an abundance fitness of -0.455 ± 0.14. With GALPANLDDMKVAELKQELKLRSLPVSGTKTELIERMRAYQDQ [L37M] the abundance fitness was -0.165 ± 0.081. With GALPANLDDMKVAELKQELKLRSLPVSGTKTELIERNRAYQDQ [L37N] the abundance fitness was -0.327 ± 0.12. Variant GALPANLDDMKVAELKQELKLRSLPVSGTKTELIERQRAYQDQ [L37Q] has an abundance fitness of -0.631 ± 0.1. With GALPANLDDMKVAELKQELKLRSLPVSGTKTELIERRRAYQDQ [L37R] the abundance fitness was -0.462 ± 0.072. With GALPANLDDMKVAELKQELKLRSLPVSGTKTELIERSRAYQDQ [L37S] the abundance fitness was -0.419 ± 0.08. GALPANLDDMKVAELKQELKLRSLPVSGTKTELIERTRAYQDQ [L37T] gave an abundance fitness of -0.416 ± 0.12. In the case of GALPANLDDMKVAELKQELKLRSLPVSGTKTELIERVRAYQDQ [L37V], the abundance fitness is reported as -0.3 ± 0.092. Work on GALPANLDDMKVAELKQELKLRSLPVSGTKTELIERWRAYQDQ [L37W] yielded an abundance fitness of -0.403 ± 0.072. GALPANLDDMKVAELKQELKLRSLPVSGTKTELIERLAAYQDQ [R38A] gave an abundance fitness of 0.2 ± 0.18. GALPANLDDMKVAELKQELKLRSLPVSGTKTELIERLCAYQDQ [R38C] gave an abundance fitness of -0.301 ± 0.086. GALPANLDDMKVAELKQELKLRSLPVSGTKTELIERLDAYQDQ [R38D] showed an abundance fitness of -0.588 ± 0.27. For GALPANLDDMKVAELKQELKLRSLPVSGTKTELIERLEAYQDQ [R38E], the abundance fitness was 0.074 ± 0.089. With GALPANLDDMKVAELKQELKLRSLPVSGTKTELIERLFAYQDQ [R38F] the abundance fitness was -0.626 ± 0.2. In the case of GALPANLDDMKVAELKQELKLRSLPVSGTKTELIERLGAYQDQ [R38G], the abundance fitness is reported as -0.047 ± 0.063. GALPANLDDMKVAELKQELKLRSLPVSGTKTELIERLHAYQDQ [R38H] gave an abundance fitness of -0.201 ± 0.17. With GALPANLDDMKVAELKQELKLRSLPVSGTKTELIERLIAYQDQ [R38I] the abundance fitness was -0.086 ± 0.37. Work on GALPANLDDMKVAELKQELKLRSLPVSGTKTELIERLKAYQDQ [R38K] yielded an abundance fitness of -0.138 ± 0.096. GALPANLDDMKVAELKQELKLRSLPVSGTKTELIERLLAYQDQ [R38L] showed an abundance fitness of -0.224 ± 0.083. With GALPANLDDMKVAELKQELKLRSLPVSGTKTELIERLMAYQDQ [R38M] the abundance fitness was -0.052 ± 0.24. In the case of GALPANLDDMKVAELKQELKLRSLPVSGTKTELIERLPAYQDQ [R38P], the abundance fitness is reported as -0.107 ± 0.1. With GALPANLDDMKVAELKQELKLRSLPVSGTKTELIERLQAYQDQ [R38Q] the abundance fitness was -0.24 ± 0.074. Variant GALPANLDDMKVAELKQELKLRSLPVSGTKTELIERLSAYQDQ [R38S] has an abundance fitness of -0.126 ± 0.081. For GALPANLDDMKVAELKQELKLRSLPVSGTKTELIERLTAYQDQ [R38T], the abundance fitness was -0.233 ± 0.077. GALPANLDDMKVAELKQELKLRSLPVSGTKTELIERLVAYQDQ [R38V] showed an abundance fitness of -0.152 ± 0.071. For GALPANLDDMKVAELKQELKLRSLPVSGTKTELIERLWAYQDQ [R38W], the abundance fitness was -0.236 ± 0.2. Variant GALPANLDDMKVAELKQELKLRSLPVSGTKTELIERLYAYQDQ [R38Y] has an abundance fitness of -0.053 ± 0.15. GALPANLDDMKVAELKQELKLRSLPVSGTKTELIERLREYQDQ [A39E] showed an abundance fitness of 0.411 ± 0.11. GALPANLDDMKVAELKQELKLRSLPVSGTKTELIERLRFYQDQ [A39F] showed an abundance fitness of -0.127 ± 0.11. GALPANLDDMKVAELKQELKLRSLPVSGTKTELIERLRIYQDQ [A39I] showed an abundance fitness of -0.034 ± 0.11. With GALPANLDDMKVAELKQELKLRSLPVSGTKTELIERLRKYQDQ [A39K] the abundance fitness was 0.284 ± 0.064. GALPANLDDMKVAELKQELKLRSLPVSGTKTELIERLRLYQDQ [A39L] showed an abundance fitness of 0.168 ± 0.077. Variant GALPANLDDMKVAELKQELKLRSLPVSGTKTELIERLRNYQDQ [A39N] has an abundance fitness of 0.259 ± 0.088. Work on GALPANLDDMKVAELKQELKLRSLPVSGTKTELIERLRPYQDQ [A39P] yielded an abundance fitness of 0.168 ± 0.096. For GALPANLDDMKVAELKQELKLRSLPVSGTKTELIERLRQYQDQ [A39Q], the abundance fitness was 0.205 ± 0.086. GALPANLDDMKVAELKQELKLRSLPVSGTKTELIERLRSYQDQ [A39S] gave an abundance fitness of 0.221 ± 0.073. For GALPANLDDMKVAELKQELKLRSLPVSGTKTELIERLRVYQDQ [A39V], the abundance fitness was 0.187 ± 0.06. In the case of GALPANLDDMKVAELKQELKLRSLPVSGTKTELIERLRWYQDQ [A39W], the abundance fitness is reported as 0.074 ± 0.076. Work on GALPANLDDMKVAELKQELKLRSLPVSGTKTELIERLRYYQDQ [A39Y] yielded an abundance fitness of 0.129 ± 0.075. For GALPANLDDMKVAELKQELKLRSLPVSGTKTELIERLRAAQDQ [Y40A], the abundance fitness was 0.247 ± 0.064. GALPANLDDMKVAELKQELKLRSLPVSGTKTELIERLRACQDQ [Y40C] gave an abundance fitness of 0.127 ± 0.082. GALPANLDDMKVAELKQELKLRSLPVSGTKTELIERLRADQDQ [Y40D] gave an abundance fitness of 0.308 ± 0.074. Variant GALPANLDDMKVAELKQELKLRSLPVSGTKTELIERLRAEQDQ [Y40E] has an abundance fitness of 0.179 ± 0.11. In the case of GALPANLDDMKVAELKQELKLRSLPVSGTKTELIERLRAFQDQ [Y40F], the abundance fitness is reported as 0.12 ± 0.062. With GALPANLDDMKVAELKQELKLRSLPVSGTKTELIERLRAGQDQ [Y40G] the abundance fitness was 0.202 ± 0.065. Work on GALPANLDDMKVAELKQELKLRSLPVSGTKTELIERLRAHQDQ [Y40H] yielded an abundance fitness of 0.228 ± 0.15. GALPANLDDMKVAELKQELKLRSLPVSGTKTELIERLRAKQDQ [Y40K] gave an abundance fitness of -0.103 ± 0.12. Variant GALPANLDDMKVAELKQELKLRSLPVSGTKTELIERLRALQDQ [Y40L] has an abundance fitness of -0.062 ± 0.077. For GALPANLDDMKVAELKQELKLRSLPVSGTKTELIERLRAMQDQ [Y40M], the abundance fitness was 0.02 ± 0.087. In the case of GALPANLDDMKVAELKQELKLRSLPVSGTKTELIERLRANQDQ [Y40N], the abundance fitness is reported as 0.127 ± 0.075. In the case of GALPANLDDMKVAELKQELKLRSLPVSGTKTELIERLRAPQDQ [Y40P], the abundance fitness is reported as 0.192 ± 0.1. Variant GALPANLDDMKVAELKQELKLRSLPVSGTKTELIERLRAQQDQ [Y40Q] has an abundance fitness of -0.189 ± 0.23. In the case of GALPANLDDMKVAELKQELKLRSLPVSGTKTELIERLRARQDQ [Y40R], the abundance fitness is reported as 0.042 ± 0.061. In the case of GALPANLDDMKVAELKQELKLRSLPVSGTKTELIERLRASQDQ [Y40S], the abundance fitness is reported as 0.246 ± 0.074. Variant GALPANLDDMKVAELKQELKLRSLPVSGTKTELIERLRATQDQ [Y40T] has an abundance fitness of 0.08 ± 0.11. For GALPANLDDMKVAELKQELKLRSLPVSGTKTELIERLRAVQDQ [Y40V], the abundance fitness was 0.179 ± 0.062. Work on GALPANLDDMKVAELKQELKLRSLPVSGTKTELIERLRAWQDQ [Y40W] yielded an abundance fitness of 0.178 ± 0.073.
